Data reported in the supplement of paper PMC7125110.
± gives the standard error. For some of these results: Variants at the floor of the assay were thinned out.

B1: glmS ribozyme (parent)
chain: AUAAAAGCGCCAGAACUACAGAAAUGUAGUUGACGAGGAGGAGGUUUAUCGAAUUUUCGGCGGAUGCCUCCAAA

Key:
Details in all cases: with glucosamine-6-phosphate
glucosamine-6-phosphate [1] = variants of: B1; assay: self-cleavage kobs at 40 uM GlcN6P; higher = faster cleavage; RNA array
How it was run: (§1)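 Glucosamine-6-phosphate, from 40 μM to 10 mM in HEPES/KCl/Mg(OAc)2 buffer, was flowed over sequenced MiSeq chips carrying barcoded ribozyme variants transcribed in situ by E. coli RNA polymerase. A hybridised Cy3 probe tracked the variants at 37 °C as tiles were imaged over ~14 h. kobs, kcat and KM were obtained by fitting normalised per-tile medians to exponential decays and then applying weighted Michaelis–Menten fits across concentrations.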

glucosamine-6-phosphate [2] = variants of: B1; assay: self-cleavage kobs at 10000 uM GlcN6P; higher = faster cleavage; RNA array
How it was run: as §1

glucosamine-6-phosphate [3] = variants of: B1; assay: self-cleavage kobs at 640 uM GlcN6P; higher = faster cleavage; RNA array
How it was run: as §1

glucosamine-6-phosphate [4] = variants of: B1; assay: self-cleavage kobs at 2500 uM GlcN6P; higher = faster cleavage; RNA array
How it was run: as §1

glucosamine-6-phosphate [5] = variants of: B1; assay: self-cleavage kobs at 160 uM GlcN6P; higher = faster cleavage; RNA array
How it was run: as §1

glucosamine-6-phosphate [6] = variants of: B1; assay: kcat; higher = faster cleavage; RNA array
How it was run: as §1

glucosamine-6-phosphate [7] = variants of: B1; assay: KM; higher = weaker cofactor use; RNA array
How it was run: as §1

## G7C U46G C67G
glucosamine-6-phosphate [1]
  self-cleavage kobs at 40 uM GlcN6P: < 1e-05 s⁻¹
glucosamine-6-phosphate [2]
  self-cleavage kobs at 10000 uM GlcN6P: < 1e-05 s⁻¹

## G7U A53G U69G
glucosamine-6-phosphate [1]
  self-cleavage kobs at 40 uM GlcN6P: 8.14e-05 ± 2.1e-05 s⁻¹
glucosamine-6-phosphate [3]
  self-cleavage kobs at 640 uM GlcN6P: 0.000822 ± 0.00023 s⁻¹
glucosamine-6-phosphate [4]
  self-cleavage kobs at 2500 uM GlcN6P: 9.39e-05 ± 3.9e-05 s⁻¹
glucosamine-6-phosphate [2]
  self-cleavage kobs at 10000 uM GlcN6P: 9.89e-05 ± 2e-05 s⁻¹

## G7A C10G C50U
glucosamine-6-phosphate [1]
  self-cleavage kobs at 40 uM GlcN6P: < 1e-05 s⁻¹

## C8G G13U
glucosamine-6-phosphate [1]
  self-cleavage kobs at 40 uM GlcN6P: < 1e-05 s⁻¹
glucosamine-6-phosphate [5]
  self-cleavage kobs at 160 uM GlcN6P: < 1e-05 s⁻¹
glucosamine-6-phosphate [3]
  self-cleavage kobs at 640 uM GlcN6P: < 1e-05 s⁻¹
glucosamine-6-phosphate [4]
  self-cleavage kobs at 2500 uM GlcN6P: < 1e-05 s⁻¹
glucosamine-6-phosphate [2]
  self-cleavage kobs at 10000 uM GlcN6P: < 1e-05 s⁻¹

## C70U C71G
glucosamine-6-phosphate [6]
  kcat: 0.000124 ± 1e-05 s⁻¹
glucosamine-6-phosphate [7]
  KM: 242 ± 98 µM
glucosamine-6-phosphate [5]
  self-cleavage kobs at 160 uM GlcN6P: 7e-05 ± 1.3e-05 s⁻¹
glucosamine-6-phosphate [3]
  self-cleavage kobs at 640 uM GlcN6P: 8.39e-05 ± 8.3e-06 s⁻¹
glucosamine-6-phosphate [4]
  self-cleavage kobs at 2500 uM GlcN6P: 0.000118 ± 9.3e-06 s⁻¹
glucosamine-6-phosphate [2]
  self-cleavage kobs at 10000 uM GlcN6P: 0.00012 ± 1.1e-05 s⁻¹

## C70U C71A
glucosamine-6-phosphate [6]
  kcat: 0.000245 ± 1.7e-05 s⁻¹
glucosamine-6-phosphate [7]
  KM: 607 ± 110 µM
glucosamine-6-phosphate [5]
  self-cleavage kobs at 160 uM GlcN6P: 5.23e-05 ± 9.7e-06 s⁻¹
glucosamine-6-phosphate [3]
  self-cleavage kobs at 640 uM GlcN6P: 0.00013 ± 1.4e-05 s⁻¹
glucosamine-6-phosphate [4]
  self-cleavage kobs at 2500 uM GlcN6P: 0.00018 ± 2.3e-05 s⁻¹
glucosamine-6-phosphate [2]
  self-cleavage kobs at 10000 uM GlcN6P: 0.000247 ± 3e-05 s⁻¹

## G7A A15C C50U C70A
glucosamine-6-phosphate [1]
  self-cleavage kobs at 40 uM GlcN6P: 0.000237 ± 4.9e-05 s⁻¹

## A6C C67G
glucosamine-6-phosphate [1]
  self-cleavage kobs at 40 uM GlcN6P: < 1e-05 s⁻¹

## G7U A14G G32C A39U
glucosamine-6-phosphate [1]
  self-cleavage kobs at 40 uM GlcN6P: < 1e-05 s⁻¹

## A5U G40C
glucosamine-6-phosphate [1]
  self-cleavage kobs at 40 uM GlcN6P: 0.000123 ± 2.6e-05 s⁻¹
glucosamine-6-phosphate [4]
  self-cleavage kobs at 2500 uM GlcN6P: 0.000574 ± 0.00021 s⁻¹

## A6U G32C G59A
glucosamine-6-phosphate [1]
  self-cleavage kobs at 40 uM GlcN6P: < 1e-05 s⁻¹
glucosamine-6-phosphate [2]
  self-cleavage kobs at 10000 uM GlcN6P: < 1e-05 s⁻¹

## C8A G38C
glucosamine-6-phosphate [1]
  self-cleavage kobs at 40 uM GlcN6P: < 1e-05 s⁻¹
glucosamine-6-phosphate [5]
  self-cleavage kobs at 160 uM GlcN6P: < 1e-05 s⁻¹
glucosamine-6-phosphate [3]
  self-cleavage kobs at 640 uM GlcN6P: < 1e-05 s⁻¹
glucosamine-6-phosphate [2]
  self-cleavage kobs at 10000 uM GlcN6P: < 1e-05 s⁻¹

## C8A C67G C68G
glucosamine-6-phosphate [1]
  self-cleavage kobs at 40 uM GlcN6P: 5.09e-05 ± 1.9e-05 s⁻¹
glucosamine-6-phosphate [3]
  self-cleavage kobs at 640 uM GlcN6P: 0.000231 ± 5.6e-05 s⁻¹
glucosamine-6-phosphate [2]
  self-cleavage kobs at 10000 uM GlcN6P: 4.91e-05 ± 1.2e-05 s⁻¹

## A6G A36C C71U
glucosamine-6-phosphate [1]
  self-cleavage kobs at 40 uM GlcN6P: < 1e-05 s⁻¹
glucosamine-6-phosphate [2]
  self-cleavage kobs at 10000 uM GlcN6P: < 1e-05 s⁻¹

## G38U A39G
glucosamine-6-phosphate [7]
  KM: 2660 ± 1000 µM

## A6U G13C G63U A64G
glucosamine-6-phosphate [1]
  self-cleavage kobs at 40 uM GlcN6P: < 1e-05 s⁻¹

## C16U U55G C68U
glucosamine-6-phosphate [7]
  KM: 507 ± 230 µM
glucosamine-6-phosphate [1]
  self-cleavage kobs at 40 uM GlcN6P: 0.000134 ± 2.4e-05 s⁻¹
glucosamine-6-phosphate [5]
  self-cleavage kobs at 160 uM GlcN6P: 0.000342 ± 0.00016 s⁻¹
glucosamine-6-phosphate [3]
  self-cleavage kobs at 640 uM GlcN6P: 0.00106 ± 0.0003 s⁻¹
glucosamine-6-phosphate [4]
  self-cleavage kobs at 2500 uM GlcN6P: 0.00118 ± 0.00028 s⁻¹
glucosamine-6-phosphate [2]
  self-cleavage kobs at 10000 uM GlcN6P: 0.00354 ± 0.00087 s⁻¹

## A6U A39C U47C A64U
glucosamine-6-phosphate [1]
  self-cleavage kobs at 40 uM GlcN6P: < 1e-05 s⁻¹

## C67A C71G
glucosamine-6-phosphate [6]
  kcat: 7.2e-05 ± 7e-06 s⁻¹
glucosamine-6-phosphate [5]
  self-cleavage kobs at 160 uM GlcN6P: 5.48e-05 ± 8.6e-06 s⁻¹
glucosamine-6-phosphate [3]
  self-cleavage kobs at 640 uM GlcN6P: 6.96e-05 ± 6.6e-06 s⁻¹
glucosamine-6-phosphate [4]
  self-cleavage kobs at 2500 uM GlcN6P: 8.16e-05 ± 8.2e-06 s⁻¹
glucosamine-6-phosphate [2]
  self-cleavage kobs at 10000 uM GlcN6P: 6e-05 ± 6.9e-06 s⁻¹

## G7A A12U A33C C58A A64G
glucosamine-6-phosphate [1]
  self-cleavage kobs at 40 uM GlcN6P: < 1e-05 s⁻¹
glucosamine-6-phosphate [2]
  self-cleavage kobs at 10000 uM GlcN6P: < 1e-05 s⁻¹

## C8G G41U
glucosamine-6-phosphate [1]
  self-cleavage kobs at 40 uM GlcN6P: < 1e-05 s⁻¹
glucosamine-6-phosphate [5]
  self-cleavage kobs at 160 uM GlcN6P: < 1e-05 s⁻¹
glucosamine-6-phosphate [3]
  self-cleavage kobs at 640 uM GlcN6P: < 1e-05 s⁻¹
glucosamine-6-phosphate [4]
  self-cleavage kobs at 2500 uM GlcN6P: < 1e-05 s⁻¹
glucosamine-6-phosphate [2]
  self-cleavage kobs at 10000 uM GlcN6P: < 1e-05 s⁻¹

## G7C G35U
glucosamine-6-phosphate [1]
  self-cleavage kobs at 40 uM GlcN6P: < 1e-05 s⁻¹
glucosamine-6-phosphate [5]
  self-cleavage kobs at 160 uM GlcN6P: < 1e-05 s⁻¹
glucosamine-6-phosphate [4]
  self-cleavage kobs at 2500 uM GlcN6P: < 1e-05 s⁻¹
